Results published in patent US20030096225A1.

Target: purified recombinant Ep-CAM produced in insect cells (UniProt P16422)
Experiment: SPR (BIAcore), Ep-CAM coupled to CM5 chip, control antibody

Chain of purified recombinant Ep-CAM produced in insect cells (P16422 24-265 limits assumed): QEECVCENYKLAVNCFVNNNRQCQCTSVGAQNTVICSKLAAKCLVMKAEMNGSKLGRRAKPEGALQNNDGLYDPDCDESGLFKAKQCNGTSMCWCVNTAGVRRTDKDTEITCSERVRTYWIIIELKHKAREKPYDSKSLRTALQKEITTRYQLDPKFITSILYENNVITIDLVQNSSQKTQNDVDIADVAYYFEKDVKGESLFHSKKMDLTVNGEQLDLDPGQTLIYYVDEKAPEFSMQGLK

Kd: 500 pM
Substance: murine anti-Ep-CAM antibody 323/A3
